According to patent publication US5536822A, “γ-phosphate linked adenosine 5' triphosphate sepharose” (University of Virginia Alumni Patents Foundation, priority 1994, dated 1996):

How the values were obtained:
[1] = test system: Nc1ncnc2c1ncn2[C@@H]1O[C@H](COP(=O)(O)OP(=O)(O)OP(=O)(O)O)[C@@H](O)[C@H]1O; experiment: purified protein, by the assay type; details: other: cyclic A kinase; pH 7.4
Text: However, since the Km for ATP varied for each protein kinase tested, for comparative purposes it was convenient to determine the Ki /Km quotient (Table 1).

[2] = test system: T1, Nc1ncnc2c1ncn2[C@@H]1O[C@H](COP(=O)(O)OP(=O)(O)OP(=O)(O)O)[C@@H](O)[C@H]1O; experiment: Inhibition constant of the ATP derivative / Km for ATP, p60^c-src assay (peptide substrate); type: biochemical; details: other: p60^c-src; pH 7.4
T1 construct: Department of Microbiology, University of Virginia (obtained from; not a purchase)
Text: [γ-^32 P] ATP was synthesized according to the procedure set forth in Johnson et al., Advances in Cyclic Nucleotide Research, 10:135-167 (1979). The catalytic subunit of cyclic-AMP-dependent protein kinase was purchased from Promega. p60^c-arc was obtained from the Department of Microbiology, University of Virginia. Recombinant p42^mapk was purified as described in Haystead et al., (1992) FEBS Lett., 306:17-22. STE7 antibody was obtained from the University of Vancouver, Canada.
The 42-kDa MAP kinase (p42^mapk) and MAPKK were assayed as described previously (Haystead et al. (1992) FEBS. Lett., 306:17-22). The cyclic-A kinase assays (30 μl) included 1 μg cyclic-A kinase, 2 mM Kemptide, 50 mM Hepes, pH 7.4, 1 mM dithiothreitol, 200 μM ATP, 5 mM MgCl2. […]
In order to assess the effectiveness of adenosine 5'-(γ-4-aminophenyl)triphosphate as an affinity ligand for protein kinases, the inhibition constants (Ki) of the derivative were determined for four different protein kinases, namely, p42^mapk, cyclic-A kinase, MAPKK and p60^c-arc (Table 1). […] This also facilitated comparisons for the relative binding constants determined with other ATP analogs (Flockhart et al. (1984) Eur. J. Biochem., 140:289-295; Hoppe et al. (1972) Eur. J. Biochem., 80:369-372; Taylor et al. (1990) Peptides and Protein Phosphorylation (Kemp et al.) pp 2-32, CRC Press).

In the case of Cyclic A kinase (Bos taurus), the Km [1] was 7.1 ± 0.51 µM.

Work on p60^c-src (Homo sapiens) yielded a Km [2] of 6.2 ± 1.30 µM.
